This is an account of results in paper PMC11497058 (2024).

Experiment [1] concerns the target T1, Recombinant His‐tagged GRB2 protein (human, UniProt P62993 1-217). As to the kind of experiment: BLI. (In BLI a coated tip is dipped into the sample, and binding shifts an interference pattern.)
Experiment [2] deals with T1, Recombinant His‐tagged GRB2 protein. As to the kind of experiment: BLI; GRB2 preincubated with Rg3.

One may read the Kd as the equilibrium constant for the complex coming apart.

T1 sequence (P62993 whole entry): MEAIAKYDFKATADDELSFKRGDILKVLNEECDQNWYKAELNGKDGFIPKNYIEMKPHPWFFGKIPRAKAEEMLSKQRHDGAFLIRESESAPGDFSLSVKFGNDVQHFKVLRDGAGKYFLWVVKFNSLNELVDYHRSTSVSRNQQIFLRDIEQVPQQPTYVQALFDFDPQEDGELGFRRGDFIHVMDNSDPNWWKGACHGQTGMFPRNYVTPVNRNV

B1: Recombinant His‐tagged TRKA protein (receptor)
chain: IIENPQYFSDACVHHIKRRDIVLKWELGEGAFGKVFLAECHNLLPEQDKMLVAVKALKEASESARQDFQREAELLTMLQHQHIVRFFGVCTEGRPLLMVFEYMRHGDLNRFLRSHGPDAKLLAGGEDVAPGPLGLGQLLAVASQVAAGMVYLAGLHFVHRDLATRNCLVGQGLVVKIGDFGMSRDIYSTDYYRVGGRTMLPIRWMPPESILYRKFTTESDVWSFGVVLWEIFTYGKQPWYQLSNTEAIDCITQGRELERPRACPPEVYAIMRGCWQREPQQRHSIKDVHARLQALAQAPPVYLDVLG
modifications: biotin (EZ‐Link NHS‐PEG12‐Biotin)
Turning to B1, the equilibrium dissociation constant (Kd) amounted to 0.0747 µM in experiment [1] and 0.014 µM in experiment [2].
